Laboratory results from patent US7271245B2, “Methods and compositions for inhibition of metastasis” (The Scripps Research Institute, priority 2004, dated 2007).

Target: T1, activated integrin αvβ3 (Homo sapiens, UniProt P05106+P06756)
T1 construct: endogenous in cells; host or cells: MDA-MB 435 variants (Parent Combo, Bone, Lung) and patient blood-derived BMS cells; also β3-negative cells re-transfected with β3WT or β3D723R cDNA
Assay: Flow cytometry, scFv binding to MDA-MB 435 variants and patient metastatic breast cancer cells
Method: FIGS. 1A, 1B, 1C. Patient derived scFvs Bc-12 and Bc-15 recognize tumor cell integrin αvβ3 in a cation and activation dependent manner. Flow cytometric analyses in TBS with or without 1 mM Ca^2+, 1 mM Mg^2+, or 0.2 mM Mn^2+ as indicated. Binding of soluble scFv detected after incubation with anti-Flag M2 murine mAb followed by FITC-anti mouse F(ab′)2. (A) scFv binding to human melanoma cells (M21: αvβ3 plus other αv integrins) (M21-LIIb: αIIbβ3, no αv integrins) or lung adenocarcinoma cells (UCLA-P3: αv integrins, no β3 integrin). (B) scFv binding to M21 melanoma cells. (C) scFv binding to variants of MDA-MB 435 human breast cancer cells that lack (β^3−) or express αvβ3 either in a non-activated (β3WT, ParentCo) or activated form (β3D723R, Bone, Lung, and BMS metastatic cancer cells isolated from breast cancer patient blood).
FIGS. 2A, 2B, 2C, 2D. Translation of scFv DNA sequence analyses. (A) Consensus amino acid sequence (SEQ ID NO: 9) of Bc-12 (SEQ ID NO: 7) and Bc-15 (SEQ ID NO: 8) (specific for activated αvβ3) compared to Bc-20 (specific for αv) (SEQ ID NO: 10). (B) scFv binding to BMS human breast cancer cells by flow cytometry, indicating loss of Bc-12 and Bc-15 binding when CDR-H3 RGD is mutated to RGE (Mut-12 and Mut-15). […] (C) cDNA sequences for scFv Bc-12 (SEQ ID NO: 1) and scFv Bc-15 (SEQ ID NO: 3). The cDNA encoding scFv Bc-12 has an ATCC accession number PTA-6303, date of deposit: Nov. 12, 2004. The cDNA encoding scFv Bc-15 has an ATCC accession number PTA-6304, date of deposit: Nov. 12, 2004. (D) cDNA sequences for scFv Mut-12 (SEQ ID NO: 5) and scFv Mut-15 (SEQ ID NO: 6). scFv Mut-12 is the RGE containing mutant version of scFv Bc-12. scFv Mut-15 is the RGE containing mutant version of scFv Bc-15.
Flow cytometry. scFv binding to human tumor cells was analyzed by flow cytometry, initially with cloned scFv phage and then with purified scFv protein. Per sample, 2×10^5 tumor cells were blocked with goat serum and incubated either with scFv phage (2-5×10^10) (1 h at RT) followed by mouse anti-M13 mAb (Serotec) (30 min on ice) and goat FITC-anti mouse (Pierce) (30 min on ice), or with purified scFv (1.25 to 40 μg/ml, routinely 10 to 15 μg/ml) (45 min on ice), followed by mouse anti-FLAG mAb M2 (Sigma) (30 min on ice) and goat FITC-anti mouse. Binding/washing buffer was TBS with or without divalent cations (1 mM Ca^2+, 1 mM Mg^2+, 0.2 mM Mn^2+). Alternatively, tumor cells were washed in 10 ml of plasma (prepared freshly from human blood anticoagulated with 50 nM D-Phe-D-Pro-D-arginyl chloromethyl ketone, PPACK, Felding-Habermann et al., J. Biol. Chem. 271: 5892-5900, 1996), resuspended in plasma and then incubated sequentially, without washing, with purified scFv (45 min on ice), followed by anti-FLAG M2 (30 min on ice) and FITC-anti mouse (30 min on ice). All samples were counter stained with propidium iodide (PI) and analyzed on a Becton-Dickinson FACScan, with live gate set to exclude PI positive cells.
To test this further, the effects of cation combinations on Bc-12 and Bc-15 binding were examined. […] Smith, Methods Cell Biol. 69: 247-259, 2002; Hughes et al., J. Biol. Chem. 271: 6571-6574, 1996. To confirm that scFv Bc-12 and Bc-15 selectively recognize αvβ3 in its activated form, binding of these antibodies to in vitro generated and in vivo selected variants of the MDA-MB 435 breast cancer cell model was tested. […] In contrast, Bc-12 and Bc-15 were able to bind an MDA-MB 435 variant expressing constitutively activated mutant αvβ3D723R, without exogenous stimulation with Mn^2+. […] Importantly, scFvs Bc-12 and Bc-15 recognized in vivo selected MDA-MB 435 variants from bone and lung metastases, as well as metastatic cells isolated from breast cancer patient blood samples (FIG. 1C). These cells express αvβ3 in a constitutively activated form. Felding-Habermann et al., Proc. Natl. Acad. Sci. U.S.A 98: 1853-1858, 2001; Rolli et al., Proc. Natl. Acad. Sci. U.S.A 100: 9482-9487, 2003.

T1 sequence (P06756 31-889 limits assumed): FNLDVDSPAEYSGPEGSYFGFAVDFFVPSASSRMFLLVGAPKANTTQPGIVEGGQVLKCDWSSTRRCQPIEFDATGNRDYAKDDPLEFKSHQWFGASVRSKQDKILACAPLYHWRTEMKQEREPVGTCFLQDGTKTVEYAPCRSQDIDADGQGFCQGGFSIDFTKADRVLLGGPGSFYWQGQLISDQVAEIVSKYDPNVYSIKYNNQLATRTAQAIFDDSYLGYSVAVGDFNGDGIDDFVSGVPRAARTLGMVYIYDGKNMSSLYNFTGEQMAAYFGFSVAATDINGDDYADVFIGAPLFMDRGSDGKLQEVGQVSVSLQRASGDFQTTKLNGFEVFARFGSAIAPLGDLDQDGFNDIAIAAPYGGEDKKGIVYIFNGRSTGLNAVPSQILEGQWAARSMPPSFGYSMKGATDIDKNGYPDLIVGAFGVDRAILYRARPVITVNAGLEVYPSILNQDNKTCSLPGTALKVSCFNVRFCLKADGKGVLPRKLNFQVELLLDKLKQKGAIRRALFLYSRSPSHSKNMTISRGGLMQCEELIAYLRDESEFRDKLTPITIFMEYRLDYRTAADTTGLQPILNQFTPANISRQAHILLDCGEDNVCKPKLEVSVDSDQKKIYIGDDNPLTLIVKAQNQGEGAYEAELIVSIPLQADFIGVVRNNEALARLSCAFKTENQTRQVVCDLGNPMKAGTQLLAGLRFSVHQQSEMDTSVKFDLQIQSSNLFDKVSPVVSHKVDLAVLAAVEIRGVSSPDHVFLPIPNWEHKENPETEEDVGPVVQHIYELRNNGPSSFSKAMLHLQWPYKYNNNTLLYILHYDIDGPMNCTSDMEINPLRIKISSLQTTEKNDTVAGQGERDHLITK
T1 sequence (P06756 891-1048 limits assumed): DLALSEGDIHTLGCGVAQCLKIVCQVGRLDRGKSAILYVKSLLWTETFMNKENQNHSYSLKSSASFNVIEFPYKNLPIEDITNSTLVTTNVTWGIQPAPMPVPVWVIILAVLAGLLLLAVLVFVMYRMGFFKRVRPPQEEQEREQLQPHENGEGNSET
T1 sequence (P05106 27-788): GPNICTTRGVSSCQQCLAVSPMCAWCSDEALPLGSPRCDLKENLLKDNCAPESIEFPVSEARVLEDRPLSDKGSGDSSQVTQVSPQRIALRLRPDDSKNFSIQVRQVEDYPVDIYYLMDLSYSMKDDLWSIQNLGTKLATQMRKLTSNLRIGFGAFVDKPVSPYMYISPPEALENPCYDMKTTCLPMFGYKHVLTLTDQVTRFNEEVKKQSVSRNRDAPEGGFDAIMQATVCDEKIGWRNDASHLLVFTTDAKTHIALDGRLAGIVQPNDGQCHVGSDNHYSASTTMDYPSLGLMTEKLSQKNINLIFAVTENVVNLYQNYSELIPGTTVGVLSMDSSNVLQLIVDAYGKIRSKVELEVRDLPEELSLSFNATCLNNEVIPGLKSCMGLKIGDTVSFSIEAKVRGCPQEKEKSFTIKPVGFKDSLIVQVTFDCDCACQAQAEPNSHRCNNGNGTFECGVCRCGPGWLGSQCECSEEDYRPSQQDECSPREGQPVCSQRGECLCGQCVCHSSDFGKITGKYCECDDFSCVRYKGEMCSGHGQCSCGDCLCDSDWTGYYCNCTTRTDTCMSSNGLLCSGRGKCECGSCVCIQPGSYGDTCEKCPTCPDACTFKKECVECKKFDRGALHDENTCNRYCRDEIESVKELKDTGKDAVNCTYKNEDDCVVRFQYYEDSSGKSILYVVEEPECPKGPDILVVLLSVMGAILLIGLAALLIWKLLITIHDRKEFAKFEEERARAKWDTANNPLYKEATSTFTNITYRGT

Molecule	recognition of in vivo selected MDA-MB 435 variants from bone and lung metastases (constitutively activated αvβ3)	recognition of metastatic cells isolated from breast cancer patient blood samples (constitutively activated αvβ3)	binding to MDA-MB 435 Parent Combo cells (non-activated αvβ3)	binding to β3 wild type expressing MDA-MB 435 cells (β3WT, non-activated αvβ3, without Mn^2+)	binding to β3 wild type expressing MDA-MB 435 cells with Mn2+ (β3WT, with Mn^2+)	binding of RGE mutated scFv to human breast cancer cells (BMS cells, compared with parent RGD scFv)
Bc-12: patient derived human scFv antibody against activated αvβ3 with RGD motif in CDR-H3; cDNA ATCC PTA-6303 (protein) scFv: MAQVQLVQSGAEVKKPGASVKVSCKASGYTFSNYGITWVRQAPGQGLEWMGWINNGNTHYAQKFQGRVTMTTDTSTSTAYMELRSLRSDDTAVYYCARDPRGDDEPYWGQGTLVTVSSGGGGSGGGGSGGGGSEIVLTQSPLSLPVTLGQPASISCRSSQNLVYSDGNTYLSWFQQRPGQSPRRLIYKVSNRDSGVPDRFSGSGSGTDFTLKISRVEAEDIGVYYCMQGTHWPPRTFGQGTKVEIKRGLGGLVDYKDDDDK	recognized	recognized	same Mn^2+ dependence	failed to bind	recognized when activated with Mn^2+	–
Mut-12: RGE containing mutant version of scFv Bc-12 (protein) MAQVQLVQSGAEVKKPGASVKVSCKASGYTFSNYGITWVRQAPGQGLEWMGWINNGNTHYAQKFQGRVTMTTDTSTSTAYMELRSLRSDDTAVYYCARDPRGEDEPYWGQGTLVTVSSGGGGSGGGGSGGGGSEIVLTQSPLSLPVTLGQPASISCRSSQNLVYSDGNTYLSWFQQRPGQSPRRLIYKVSNRDSGVPDRFSGSGSGTDFTLKISRVEAEDIGVYYCMQGTHWPPRTFGQGTKVEIKRGLGGLVDYKDDDDK	–	–	–	–	–	strongly reduced
